The target of test [1] is opioid growth factor receptor (OGFr) (human) (UniProt Q9NZT2). Kind of test: cell-based or functional assay.
Test [2] addresses T1, Cdk4 (human, UniProt P11802 2-303).
T1 construct: Endogenous protein immunoprecipitated from SCC-1 cell homogenates with a commercial polyclonal Cdk4 antibody; also called Cdk4 kinase
The test is described as follows: Cdk4 immunoprecipitation from SCC-1 cell homogenates, Western blot with p16 antibodies. From the text:
Cell cycle progression depends on both positive and negative regulators.
(A western blot detects proteins with antibodies after separation by electrophoresis.)

opioid growth factor receptor (OGFr) (human), sequence (Q9NZT2 whole entry): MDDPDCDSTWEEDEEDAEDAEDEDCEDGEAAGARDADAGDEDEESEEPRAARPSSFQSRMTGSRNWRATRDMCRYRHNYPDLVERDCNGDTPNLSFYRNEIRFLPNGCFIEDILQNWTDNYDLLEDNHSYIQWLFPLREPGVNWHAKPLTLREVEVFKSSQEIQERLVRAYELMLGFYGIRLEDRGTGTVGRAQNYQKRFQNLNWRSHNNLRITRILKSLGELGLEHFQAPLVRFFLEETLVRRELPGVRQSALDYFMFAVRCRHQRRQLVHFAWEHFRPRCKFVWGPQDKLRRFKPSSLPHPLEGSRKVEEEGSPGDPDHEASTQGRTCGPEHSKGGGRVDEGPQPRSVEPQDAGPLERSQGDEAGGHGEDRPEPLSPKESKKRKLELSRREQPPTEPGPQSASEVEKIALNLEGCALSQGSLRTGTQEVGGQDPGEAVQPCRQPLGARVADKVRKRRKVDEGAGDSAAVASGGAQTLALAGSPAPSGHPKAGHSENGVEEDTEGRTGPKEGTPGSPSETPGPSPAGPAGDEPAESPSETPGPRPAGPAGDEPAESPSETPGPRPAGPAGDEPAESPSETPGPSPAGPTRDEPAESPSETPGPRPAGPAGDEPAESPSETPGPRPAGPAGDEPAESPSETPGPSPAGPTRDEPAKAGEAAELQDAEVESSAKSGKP
T1 sequence (P11802 2-303 limits assumed): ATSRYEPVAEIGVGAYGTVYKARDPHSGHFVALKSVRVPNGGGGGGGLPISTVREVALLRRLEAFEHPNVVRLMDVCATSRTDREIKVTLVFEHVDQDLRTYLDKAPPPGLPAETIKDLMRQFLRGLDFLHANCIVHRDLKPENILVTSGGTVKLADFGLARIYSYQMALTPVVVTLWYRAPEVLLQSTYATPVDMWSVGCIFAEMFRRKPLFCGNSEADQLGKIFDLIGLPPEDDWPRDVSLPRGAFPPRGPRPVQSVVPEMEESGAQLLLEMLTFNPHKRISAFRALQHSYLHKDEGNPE

As for “opioid growth factor (OGF), [Met5]-enkephalin (from UniProt P01210 100-104) (peptide)”, in test [1], the growth of control siRNA-treated SCC-1 cells (cell number at 96 h) was 46% and the growth of wt SCC-1 cells (cell number at 96 h) came to 29%.

B1: p16 (INK4a) (other, human, UniProt P42771 1-156, looked up)
chain: MEPAAGSSMEPSADWLATAAARGRVEEVRALLEAGALPNAPNSYGRRPIQVMMMGSARVAELLLLHGAEPNCADPATLTRPVHDAAREGFLDTLVVLHRAGARLDVRDAWGRLPVDLAEELGHRDVARYLRAAAGGTRGSNHARIDAAEGPSDIPD
notes: Endogenous protein co-immunoprecipitated with Cdk4 from SCC-1 cell homogenates and detected with a commercial p16 antibody
Regarding B1, the binding result in test [2] is recorded as “binds”.
